Results: US20040132096A1 (GlaxoSmithKline, published 2004)

T1: Nogo-A (Homo sapiens (Human), UniProt Q9NQC3 1-1192)
T1 sequence: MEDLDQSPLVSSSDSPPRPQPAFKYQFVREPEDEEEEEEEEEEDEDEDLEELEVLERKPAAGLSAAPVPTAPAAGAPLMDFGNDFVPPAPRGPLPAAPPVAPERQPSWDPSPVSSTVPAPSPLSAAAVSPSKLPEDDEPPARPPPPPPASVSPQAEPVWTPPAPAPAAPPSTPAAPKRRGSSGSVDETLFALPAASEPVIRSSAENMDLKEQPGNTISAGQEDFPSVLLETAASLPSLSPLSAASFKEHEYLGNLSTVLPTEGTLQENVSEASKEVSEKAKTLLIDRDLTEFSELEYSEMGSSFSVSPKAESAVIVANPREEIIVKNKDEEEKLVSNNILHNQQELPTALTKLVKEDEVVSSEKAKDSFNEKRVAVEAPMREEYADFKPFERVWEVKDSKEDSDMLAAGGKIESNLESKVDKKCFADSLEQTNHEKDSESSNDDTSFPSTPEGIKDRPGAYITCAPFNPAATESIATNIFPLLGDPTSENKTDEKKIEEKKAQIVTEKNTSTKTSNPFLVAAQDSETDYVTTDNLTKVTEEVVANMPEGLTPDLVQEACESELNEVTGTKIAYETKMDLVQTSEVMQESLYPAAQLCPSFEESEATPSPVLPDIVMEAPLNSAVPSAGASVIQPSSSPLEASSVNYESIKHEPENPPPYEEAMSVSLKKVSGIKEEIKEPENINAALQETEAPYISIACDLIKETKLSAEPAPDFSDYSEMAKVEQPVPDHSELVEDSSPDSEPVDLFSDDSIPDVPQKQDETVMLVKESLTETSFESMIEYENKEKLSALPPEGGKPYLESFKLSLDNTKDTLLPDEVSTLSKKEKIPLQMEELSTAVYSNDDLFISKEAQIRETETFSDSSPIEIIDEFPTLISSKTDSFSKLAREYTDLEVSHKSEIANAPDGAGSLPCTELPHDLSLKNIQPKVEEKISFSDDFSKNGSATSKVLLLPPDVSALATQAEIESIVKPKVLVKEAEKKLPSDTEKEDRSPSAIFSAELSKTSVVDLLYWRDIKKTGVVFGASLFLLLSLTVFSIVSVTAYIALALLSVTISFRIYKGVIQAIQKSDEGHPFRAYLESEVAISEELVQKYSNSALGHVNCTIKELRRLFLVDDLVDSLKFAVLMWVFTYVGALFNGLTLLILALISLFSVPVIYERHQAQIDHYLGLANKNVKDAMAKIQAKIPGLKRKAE

B1: Asp2/BACE-myc (enzyme, not shown: small tags and cut ends)
chain: ETDEEPEEPGRRGSFVEMVDNLRGKSGQGYYVEMTVGSPPQTLNILVDTGSSNFAVGAAPHPFLHRYYQRQLSSTYRDLRKGVYVPYTQGKWEGELGTDLVSIPHGPNVTVRANIAAITESDKFFINGSNWEGILGLAYAEIARPDDSLEPFFDSLVKQTHVPNLFSLQLCGAGFPLNQSEVLASVGGSMIIGGIDHSLYTGSLWYTPIRREWYYEVIIVRVEINGQDLKMDCKEYNYDKSIVDSGTTNLRLPKKVFEAAVKSIKAASSTEKFPDGFWLGEQLVCWQAGTTPWNIFPVISLYLMGEVTNQSFRITILPQQYLRPVEDVATSQDDCYKFAISQSSTGTVMGAVIMEGFYVVFDRARKRIGFAVSACHVHDEFRTAAVEGPFVTLDMEDCGYNIPQTDESTLMTIAYVMAAICALFMLPLCLMVCQWRCLRCLRQQHDDFADDISLLK
notes: It was transiently transfected into SHSY5Y-APPswe cells; also called BACE/Asp2

Legend:
[1] = target: B1; experiment: co-localisation by immunofluorescence in double-transfected SHSY5Y-APPswe cells
Excerpt: (§1) cDNAs encoding Nogo isoforms were transfected into cultured SHSY5Y-APPswe cells and expressed proteins detected in fixed cells with immunohistochemistry. Asp2 was detected using a c-terminal myc epitope (FIG. 3A left panel) while the Nogo-A (FIG. 3A right panel) and B isoforms were detected using isoform specific rabbit polyclonal antibodies (designated 67 and 66 respectively or monoclonal Anti-Nogo-A 6D5 as indicated in the figure legends). These experiments confirm that it is possible to overexpress these proteins in this cellular background and can be used as the basis of an assay for modulators of Nogo influenced APP processing.

[2] = target: T1, Nogo-A; experiment: as above
Excerpt: as §1

Row | binding result [1] | binding result [2] | Binder
1 | binds |  | NogoB (ASY) (other) MEDLDQSPLVSSSDSPPRPQPAFKYQFVREPEDEEEEEEEEEEDEDEDLEELEVLERKPAAGLSAAPVPTAPAAGAPLMDFGNDFVPPAPRGPLPAAPPVAPERQPCWDPSPVSSTVPAPSPLSAAAVSPSKLPQDDEPPARPPPPPPASVSPQAEPVWTPPAPAPAAPPSTPAAPKRRGSSGSVVVDLLYWRDIKKTGVVFGASLFLLLSLTVFSIVSVTAYIALALLSVTISFRIYKGVIQAIQKSDEGHPFRAYLESEVAISEELVQKYSNSALGHVNCTIKELRRLFLVDDLVDSLKFAVLMWVFTYVGALFNGLTLLILALISLFSVPVIYERHQAQIDHYLGLANKNVKDAMAKIQAKIPGLKRKAE
2 |  | binds | B1
